Test results published in patent publication US7446182.
Read-outs that look alike come from different tables or passages of the source.

Key:
[1] = target: Bacillus anthracis protective antigen (PA), 83 kDa polypeptide (Bacillus anthracis) (UniProt P13423); assay: SPR, PA immobilized on CM5 chip
[2] = target: Bacillus anthracis protective antigen (PA), 83 kDa polypeptide (Bacillus anthracis) (UniProt P13423); assay: SPR, PA immobilized on CM5 chip; remark: listed apart in the source
[3] = target: Bacillus anthracis protective antigen (PA), 83 kDa polypeptide (Bacillus anthracis) (UniProt P13423); assay: ELISA on PA; scFv kept 2 h at 4 C before the titration
[4] = target: Bacillus anthracis protective antigen (PA), 83 kDa polypeptide (Bacillus anthracis) (UniProt P13423); assay: SPR, PA immobilized on CM5 chip at low coupling density

Chain of Bacillus anthracis protective antigen (PA), 83 kDa polypeptide (Bacillus anthracis) (P13423 30-764 limits assumed): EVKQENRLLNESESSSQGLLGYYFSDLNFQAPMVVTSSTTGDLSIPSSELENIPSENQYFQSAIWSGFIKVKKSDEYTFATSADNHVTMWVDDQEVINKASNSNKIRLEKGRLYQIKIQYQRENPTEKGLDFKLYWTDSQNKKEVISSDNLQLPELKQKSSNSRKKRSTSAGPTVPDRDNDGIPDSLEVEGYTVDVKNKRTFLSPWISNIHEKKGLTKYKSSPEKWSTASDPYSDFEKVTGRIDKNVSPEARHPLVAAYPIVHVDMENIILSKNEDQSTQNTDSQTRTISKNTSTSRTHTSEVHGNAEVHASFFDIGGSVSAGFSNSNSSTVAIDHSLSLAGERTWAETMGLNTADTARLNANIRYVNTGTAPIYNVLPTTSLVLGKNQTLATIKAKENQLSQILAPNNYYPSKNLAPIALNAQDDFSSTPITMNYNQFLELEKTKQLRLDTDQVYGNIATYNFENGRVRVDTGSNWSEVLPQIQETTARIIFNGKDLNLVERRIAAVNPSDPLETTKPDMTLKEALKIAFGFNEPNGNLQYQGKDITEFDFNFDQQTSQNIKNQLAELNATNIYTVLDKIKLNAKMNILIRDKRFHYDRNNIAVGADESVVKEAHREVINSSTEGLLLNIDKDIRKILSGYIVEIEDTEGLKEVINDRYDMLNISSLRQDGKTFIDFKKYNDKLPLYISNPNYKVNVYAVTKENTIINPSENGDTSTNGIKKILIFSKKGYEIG

## 14B7 wild type scFv
[1]
  Kd: 12 nM
  koff: 0.0032 s⁻¹
  kon: 310000 M⁻¹ s⁻¹
[2]
  koff: 0.0035 s⁻¹
[3]
  EC50 (read off the curve): 0.05 µg/mL

## 14B7 monoclonal antibody (mouse IgG1 from hybridoma 14B7)
[1]
  koff: 0.00135 s⁻¹
  kon: 500000 M⁻¹ s⁻¹
[4]
  Kd: 2.3 nM

## 14B7 Fab (papain digest of the 14B7 mouse IgG1)
[1]
  Kd: 12 nM
  koff: 0.0033 s⁻¹
  kon: 300000 M⁻¹ s⁻¹
[2]
  koff: 0.0035 s⁻¹
  kon: 310000 M⁻¹ s⁻¹

## 14B7 wild type scAb (scFv with a C-terminal human constant kappa domain)
[1]
  koff: 0.003 s⁻¹
  kon: 290000 M⁻¹ s⁻¹
